Results taken from patent US5356875A, “Anti-thrombin polypeptides and pharmaceutical compositions thereof” (Farmitalia Carlo ERBA S.r.l., priority 1991, dated 1994).

Key:
[1] = cited from earlier work
thrombin [2] = target: T1, thrombin (Homo sapiens, UniProt P00734); experiment: chromogenic assay: inhibition of thrombin cleavage of synthetic substrate S-2238; type: biochemical
thrombin [3] = target: T1, thrombin; experiment: anti-thrombin activity of P2 released from fusion protein (test not specified); type: biochemical; conditions: P2 released by CNBr cleavage of polyhedrin fusion protein from S. frugiperda cytoplasm
Protocol: The recombinant baculovirus was obtained as described in Example 5. Infection of S. frugiperda cells was carried out according to standard procedures^20. Cultivation of infected insect cells lead to the cytoplasmic accumulation of the fusion protein. This hybrid protein was the source of recombinant protein P2. Several methods are available from the literature which can be used to cleave the hybrid with CNBr^22,23.The application of the method of Olson et al^23, has allowed us to obtain the correct polypeptidic sequence of P2.

For hirudin, the “efficacy in preventing venous thrombosis, vascular shunt occlusion and thrombin-induced disseminated intravascular coagulation” value ([1]; animal studies) is listed as “demonstrated efficacy”, the antigenicity ([1]; in vivo) is listed as “little or no antigenicity” and the “clearance time from circulation” value ([1]; in vivo) is listed as “very short clearance time”. The toxicity ([1]; in vivo) was “low toxicity”.

B1: P2: 64-residue anti-thrombin polypeptide from Hirudinaria manillensis, HPLC peak P2, sequence (ii); also produced recombinantly in E. coli and insect cells (protein)
chain: VSYTDCTESGQNYCLCVGSNVCGEGKNCQLSSSGNQCVHGEGTPKPKSQTEGDFEEIPDEDILN
With B1 the “activity of P2” value (thrombin [2]; E. coli type B strains with plasmid pOMP-P2 (Plpp/lac promoter)) was “active”, the anti-thrombin activity (thrombin [2]; culture supernatants of S. frugiperda cells infected with recombinant baculovirus, spinner culture or monolayers) was “presence of an anti-thrombin activity” and the anti-thrombin activity (thrombin [2]; periplasmic fraction of E. coli type B NCTC 10537 transformed with pFC-P2) was “presence of anti-thrombin activity”. For the same molecule, the anti-thrombin activity (thrombin [3]) was “displayed anti-thrombin activity”.
